Earlier results in patent publication US20130251731A1, “Tau Acetylation in the Pathogenesis of Alzheimers Disease and Other Related Tauopathies” (THE TRUSTEES OF THE UNIVERSITY OF PENNSYLVANIA, priority 2012, published 2013).
Read-outs that look alike come from different tables or passages of the source.

Tested on: histones and microtubules

B1: αTAT-1: cytoplasmic α-tubulin acetyltransferase (protein, UniProt Q5SQI0 1-421, looked up)
Alpha-tubulin …: MEFPFDVDALFPERITVLDQHLRPPARRPGTTTPARVDLQQQIMTIIDELGKASAKAQNLSAPITSASRMQSNRHVVYILKDSSARPAGKGAIIGFIKVGYKKLFVLDDREAHNEVEPLCILDFYIHESVQRHGHGRELFQYMLQKERVEPHQLAIDRPSQKLLKFLNKHYNLETTVPQVNNFVIFEGFFAHQHRPPAPSLRATRHSRAAAVDPTPAAPARKLPPKRAEGDIKPYSSSDREFLKVAVEPPWPLNRAPRRATPPAHPPPRSSSLGNSPERGPLRPFVPEQELLRSLRLCPPHPTARLLLAADPGGSPAQRRRTRGTPPGLVAQSCCYSRHGGVNSSSPNTGNQDSKQGEQETKNRSASEEQALSQDGSGEKPMHTAPPQAPAPPAQSWTVGGDILNARFIRNLQERRSTRPW
Shida et al., 2010
  Kcat: 0.000617 s⁻¹
Substrate as listed (H4-21, H3p19, H3, microtubules)
  Kcat: 0.000617 s⁻¹
Substrate as listed (H4-21, H3p19, H3, microtubules), read-out: Km [protein]
  Km: 1.6 µM
